One experiment has as its target T1, human OX40-ECD-his (human, UniProt P43489 29-214).
T1 construct: whole entry named
T1 sequence: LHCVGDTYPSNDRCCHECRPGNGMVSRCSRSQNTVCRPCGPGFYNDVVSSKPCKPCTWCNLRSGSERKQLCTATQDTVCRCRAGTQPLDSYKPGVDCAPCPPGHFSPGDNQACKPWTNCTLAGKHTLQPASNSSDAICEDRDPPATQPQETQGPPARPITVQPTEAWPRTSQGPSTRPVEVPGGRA
The experiment is described as follows: ELISA, scFv supernatant on coated human OX40-ECD-his, anti-c-myc detection. On the technique in general: An ELISA detects its analyte on a solid surface through an enzyme-linked reagent.

For experiment [1], the target named is Human CD64 (FcγRI), Sino Biological 10256-H08H (human, UniProt P12314 16-288). The experiment is described as follows: SPR Biacore 8K+, receptor captured by anti-His, antibody as analyte. In general terms: SPR reads the build-up and loss of mass on a sensor chip optically.
Sequence of Human CD64 (FcγRI), Sino Biological 10256-H08H (P12314 16-288 limits assumed): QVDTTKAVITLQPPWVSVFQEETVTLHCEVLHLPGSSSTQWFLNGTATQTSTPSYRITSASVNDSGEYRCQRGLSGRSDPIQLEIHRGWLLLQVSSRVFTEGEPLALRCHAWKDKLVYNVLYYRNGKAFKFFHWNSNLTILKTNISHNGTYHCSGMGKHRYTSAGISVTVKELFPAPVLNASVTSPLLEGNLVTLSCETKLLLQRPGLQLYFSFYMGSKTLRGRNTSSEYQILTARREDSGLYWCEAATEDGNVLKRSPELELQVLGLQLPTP
Procedure: (§1) Measurements were performed on a Biacore 8K+ instrument (Cytiva Life Sciences) using the Biacore 8K+ Control Software and analyzed with the Biacore Insight Evaluation Software (v3.0). […] After each binding event, baseline levels were restored using a regeneration solution on both flow-paths. HBS-EP+pH 7.4 solution were used as running buffer. Data was analyzed using the MCK evaluation method of the Biacore Insight Evaluation Software and kinetic parameters were determined using the 1:1 binding and steady-state affinity methods.
(§2) Each measurement is the mean of three identical replicate conditions.
In experiment [2] the target is T2, Human CD16a (F176V), Sino Biological 10389-H08H1 (human, UniProt P08637 17-208).
T2 construct: also called FcγRIIIa176V
T2 sequence (P08637 17-208 F176V limits assumed): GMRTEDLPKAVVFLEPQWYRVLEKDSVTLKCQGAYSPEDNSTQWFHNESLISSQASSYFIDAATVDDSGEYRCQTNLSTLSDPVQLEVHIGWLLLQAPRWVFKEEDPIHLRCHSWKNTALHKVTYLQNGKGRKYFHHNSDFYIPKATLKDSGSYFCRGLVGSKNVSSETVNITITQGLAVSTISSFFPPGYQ
Described as above.
Procedure: as §1, §2

The target in experiment [3] is T3, Human CD32a (167 Arg), Sino Biological 10374-H08H (human, UniProt P12318 34-218).
T3 construct: also called FcγRIIa167R
T3 sequence (looked up): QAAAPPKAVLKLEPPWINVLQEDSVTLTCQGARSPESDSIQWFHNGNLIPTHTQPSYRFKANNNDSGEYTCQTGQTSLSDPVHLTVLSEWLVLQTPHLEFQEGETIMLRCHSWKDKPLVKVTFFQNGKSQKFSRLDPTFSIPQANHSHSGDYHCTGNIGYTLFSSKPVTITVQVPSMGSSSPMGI
Described as above.
Procedure: as §1, §2

Experiment [4] concerns the target T4, Human CD32b, Sino Biological 10259-H08H (human, UniProt P31994 43-217).
T4 construct: also called FcγRIIb
T4 sequence (looked up): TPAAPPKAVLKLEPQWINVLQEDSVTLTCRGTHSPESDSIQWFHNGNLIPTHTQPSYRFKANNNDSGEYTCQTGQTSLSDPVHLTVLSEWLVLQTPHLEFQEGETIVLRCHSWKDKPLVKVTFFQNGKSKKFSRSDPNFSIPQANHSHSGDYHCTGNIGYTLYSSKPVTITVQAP
The description is as above.
Procedure: as §1, §2

Experiment [5] addresses T5, Human CD16a (176F), Sino Biological 10389-H08H (human, UniProt P08637 17-208).
T5 construct: also called FcγRIIIa176F
The experiment is described as above.
Procedure: as §1, §2

The target in experiment [6] is T6, Human CD16b (NA2 allotype), Sino Biological 11046-H08H (human, UniProt O75015 17-200).
T6 construct: also called FcγRIIIb
T6 sequence (O75015 17-200 N65S limits assumed): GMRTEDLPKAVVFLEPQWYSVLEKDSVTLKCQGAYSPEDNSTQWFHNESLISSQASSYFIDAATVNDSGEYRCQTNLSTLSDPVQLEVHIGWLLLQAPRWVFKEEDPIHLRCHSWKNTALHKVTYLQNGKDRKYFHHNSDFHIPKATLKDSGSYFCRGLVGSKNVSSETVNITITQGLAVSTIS
The experiment is described as above.
Procedure: as §1, §2

The target of experiment [7] is T7, Human CD32a (167 His), Sino Biological 10374-H08H1 (human, UniProt P12318 34-218).
T7 construct: also called FcγRIIa167H
T7 sequence (looked up): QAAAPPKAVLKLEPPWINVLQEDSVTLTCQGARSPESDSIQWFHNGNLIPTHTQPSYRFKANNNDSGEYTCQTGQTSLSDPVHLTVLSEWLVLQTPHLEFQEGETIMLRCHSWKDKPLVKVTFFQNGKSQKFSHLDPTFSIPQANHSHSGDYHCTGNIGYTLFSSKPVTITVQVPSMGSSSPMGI
The description is as above.
Procedure: as §1, §2

The target in experiment [8] is T8, human OX40 (TNFRSF4, CD134) on cells (human, UniProt P43489 29-277).
T8 sequence: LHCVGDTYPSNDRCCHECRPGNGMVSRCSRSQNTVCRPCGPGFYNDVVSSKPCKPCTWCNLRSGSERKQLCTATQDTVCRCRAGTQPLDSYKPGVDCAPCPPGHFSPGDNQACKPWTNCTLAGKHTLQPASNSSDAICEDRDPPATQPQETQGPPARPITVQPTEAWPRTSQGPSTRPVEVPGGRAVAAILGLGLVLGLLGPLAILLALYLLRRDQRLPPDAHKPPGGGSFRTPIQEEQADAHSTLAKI
In words: cell-based or functional assay.

The target in experiment [9] is T8, human OX40 (TNFRSF4, CD134) on cells. The experiment is described as follows: cell-based or functional assay. This is another data set of the same source.
Experiment [10] has the same target. In words: flow cytometry on Jurkat-NFκB (OX40) cells, detection with anti-human IgG Fc-AF647. In general terms: A flow cytometer gives signals particle by particle.

One may read the Kd as the concentration at which binding is half-saturated. A lower Kd goes with a tighter complex. By EC50 (read off the curve) is commonly meant the concentration needed to bring the measured effect to its halfway point.

T5 sequence (P08637 17-208 limits assumed): as the sequence (P08637 17-208 F176V limits assumed) above, with V160F counted along it
Procedure for human OX40-ECD-his: The binding of scFv clones was assessed by ELISA. Individual E. coli colonies from the second round of selection were picked and grown in 2YT ampicillin medium (96-well deep well plates). ScFv expression was induced by addition of 1 mM of IPTG and incubation ON at 30° C. and 250 RPM. Cells were centrifuged and culture supernatant were used for screening. RIA/EIA plates were coated with either 200 ng/well of human OX40-ECD-his or cynomolgus OX40-ECD-Fc. In order to discriminate potential antibodies selected against the Fc fragment, a plate was also coated with an irrelevant Fc fused antigen. The plates were then blocked with PBS supplemented with 3% Bovine Serum Albumin (BSA). 80 μL of bacteria culture supernatants were then mixed with 20 μl of 3% BSA and added to the blocked plates for 1 hr at room temperature. Bound scFvs were detected using a biotinylated chicken anti-c-myc antibody diluted 1:5000 in PBS-0.3% BSA incubated for 1 hr at RT, followed by staining with the Pierce High Sensitivity Streptavidin-HRP reagent diluted 1:8000 in PBS-0.3% BSA for 30 min at RT. Plates were extensively washed using PBS supplemented with 0.05% Tween 20 between each incubation step. […] Clones that bound specifically to both human and cynomolgus OX40 but not to irrelevant antigen-Fc fusion protein were DNA sequenced.

B1: MAB8 scFv clone (scFv)
scFv: QVTLKESGPALVKPTQTLTLTCSFSGFSLSTSGMGVGWIRQPPGKALEWIAHIWWDDDKYYNTALKTRLTISKDTSKNQVVLTMTNMDPVDTATYYCARIDWDGFAYWGQGTLVTVSSGGGGSGGGGSGGGGSEIVLTQSPATLSLSPGERATLSCRASSSVSYMHWYQQKPGQAPRPWIYATSNRATGIPARFSGSGSGTDYTLTISSLEPEDFAVYYCQQTVAWPWTFGQGTKVEIK
Consider B1, for which, in the experiment with human OX40-ECD-his, the binding result is recorded as “binds”.

B2: MAB9 scFv clone (scFv)
scFv: QVTLKESGPALVKPTQTLTLTCSFSGFSLSTSGMGVGWIRQPPGKALEWIAHIWWDDDKYYNTALKTRLTISKDTSKNQVVLTMTNMDPVDTATYYCARIDWDGFAYWGQGTLVTVSSGGGGSGGGGSGGGGSEIVLTQSPATLSLSPGERATLSCRASSSVSYMHWYQQKPGQAPRPWIYATSNRATGIPARFSGSGSGTDYTLTISSLEPEDFAVYYCQAASSSSLEFGQGTKVEIK
With B2, the binding result with human OX40-ECD-his is on record as “binds”.

B3: MAB6 scFv clone (scFv)
scFv: QVTLKESGPALVKPTQTLTLTCSFSGFSLSTSGMGVGWIRQPPGKALEWIAHIWWDDDKYYNTALKTRLTISKDTSKNQVVLTMTNMDPVDTATYYCARIDWDGFAYWGQGTLVTVSSGGGGSGGGGSGGGGSEIVLTQSPATLSLSPGERATLSCRASSSVSYMHWYQQKPGQAPRPWIYATSNRATGIPARFSGSGSGTDYTLTISSLEPEDFAVYYCQQWETWPWTFGQGTKVEIK
For B3, the binding result with human OX40-ECD-his is recorded as “binds”.

B4: MAB5 scFv clone (scFv)
scFv: QVTLKESGPALVKPTQTLTLTCSFSGFSLSTSGMGVGWIRQPPGKALEWIAHIWWDDDKYYNTALKTRLTISKDTSKNQVVLTMTNMDPVDTATYYCARIDWDGFAYWGQGTLVTVSSGGGGSGGGGSGGGGSEIVLTQSPATLSLSPGERATLSCRASSSVSYMHWYQQKPGQAPRPWIYATSNRATGIPARFSGSGSGTDYTLTISSLEPEDFAVYYCQQTLHYPWTFGQGTKVEIK
Turning to B4, the binding result in the experiment with human OX40-ECD-his is on record as “binds”.

B5: MAB3 scFv clone (scFv)
scFv: QVTLKESGPALVKPTQTLTLTCSFSGFSLSTSGMGVGWIRQPPGKALEWIAHIWWDDDKYYNTALKTRLTISKDTSKNQVVLTMTNMDPVDTATYYCARIDWDGFAYWGQGTLVTVSSGGGGSGGGGSGGGGSEIVLTQSPATLSLSPGERATLSCRASSSVSYMHWYQQKPGQAPRPWIYATSNRATGIPARFSGSGSGTDYTLTISSLEPEDFAVYYCQQTIEWPWTFGQGTKVEIK
Turning to B5, the binding result with human OX40-ECD-his is “binds”.

B6: MAB4 scFv clone (scFv)
scFv: QVTLKESGPALVKPTQTLTLTCSFSGFSLSTSGMGVGWIRQPPGKALEWIAHIWWDDDKYYNTALKTRLTISKDTSKNQVVLTMTNMDPVDTATYYCARIDWDGFAYWGQGTLVTVSSGGGGSGGGGSGGGGSEIVLTQSPATLSLSPGERATLSCRASSSVSYMHWYQQKPGQAPRPWIYATSNRATGIPARFSGSGSGTDYTLTISSLEPEDFAVYYCQQTLLFPWTFGQGTKVEIK
Turning to B6, the binding result with human OX40-ECD-his is given as “binds”.

B7: MAB7 scFv clone (scFv)
scFv: QVTLKESGPALVKPTQTLTLTCSFSGFSLSTSGMGVGWIRQPPGKALEWIAHIWWDDDKYYNTALKTRLTISKDTSKNQVVLTMTNMDPVDTATYYCARIDWDGFAYWGQGTLVTVSSGGGGSGGGGSGGGGSEIVLTQSPATLSLSPGERATLSCRASSSVSYMHWYQQKPGQAPRPWIYATSNRATGIPARFSGSGSGTDYTLTISSLEPEDFAVYYCQQMEFTPWTFGQGTKVEIK
With B7, the binding result in the experiment with human OX40-ECD-his was “binds”.

B8: MAB1 scFv clone (scFv)
scFv: QVTLKESGPALVKPTQTLTLTCSFSGFSLSTSGMGVGWIRQPPGKALEWIAHIWWDDDKYYNTALKTRLTISKDTSKNQVVLTMTNMDPVDTATYYCARIDWDGFAYWGQGTLVTVSSGGGGSGGGGSGGGGSEIVLTQSPATLSLSPGERATLSCRASSSVSYMHWYQQKPGQAPRPWIYATSNRATGIPARFSGSGSGTDYTLTISSLEPEDFAVYYCQQFGAWPWTFGQGTKVEIK
notes: Phage library scFv in bacterial culture supernatant
As to B8, the binding result with human OX40-ECD-his is on record as “binds”.

B9: MAB2 scFv clone (scFv)
scFv: QVTLKESGPALVKPTQTLTLTCSFSGFSLSTSGMGVGWIRQPPGKALEWIAHIWWDDDKYYNTALKTRLTISKDTSKNQVVLTMTNMDPVDTATYYCARIDWDGFAYWGQGTLVTVSSGGGGSGGGGSGGGGSEIVLTQSPATLSLSPGERATLSCRASSSVSYMHWYQQKPGQAPRPWIYATSNRATGIPARFSGSGSGTDYTLTISSLEPEDFAVYYCQQFGDPPWTFGQGTKVEIK
Turning to B9, the binding result in the experiment with human OX40-ECD-his was “binds”.

B10: MAB11 (antibody, human IgG1, kappa)
heavy: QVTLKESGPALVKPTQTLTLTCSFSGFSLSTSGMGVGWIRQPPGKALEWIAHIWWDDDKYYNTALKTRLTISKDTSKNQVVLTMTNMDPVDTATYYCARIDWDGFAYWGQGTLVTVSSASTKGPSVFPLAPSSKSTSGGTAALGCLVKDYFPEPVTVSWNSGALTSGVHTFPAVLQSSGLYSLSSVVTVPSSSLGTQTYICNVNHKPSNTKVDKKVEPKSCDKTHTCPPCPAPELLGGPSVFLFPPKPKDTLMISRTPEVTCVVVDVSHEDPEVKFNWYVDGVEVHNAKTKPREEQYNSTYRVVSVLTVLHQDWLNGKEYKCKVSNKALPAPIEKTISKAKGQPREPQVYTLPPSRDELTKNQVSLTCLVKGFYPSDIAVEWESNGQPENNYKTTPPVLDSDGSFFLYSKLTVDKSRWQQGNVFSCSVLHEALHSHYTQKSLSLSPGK
light: EIVLTQSPATLSLSPGERATLSCRASSSVSYMHWYQQKPGQAPRPWIYATSNRATGIPARFSGSGSGTDYTLTISSLEPEDFAVYYCQQFGAWPWTFGQGTKVEIKRTVAAPSVFIFPPSDEQLKSGTASVVCLLNNFYPREAKVQWKVDNALQSGNSQESVTEQDSKDSTYSLSSTLTLSKADYEKHKVYACEVTHQGLSSPVTKSFNRGEC
notes: IgG1 with M428L and N434S; also called MAB1 Heavy Chain + LS
As to B10, the Kd in experiment [1] worked out at 0.0063 µM; in [2] it was 0.221 µM; in experiment [3], 5.43 µM; in experiment [4], 9.88 µM; in experiment [5], 0.246 µM; in experiment [6] it was 2.74 µM. For the same molecule, the Kd in experiment [7] came to 3.38 µM.

B11: OX40L (recombinant human OX40 ligand) (ligand, UniProt P23510 51-183, looked up)
chain: QVSHRYPRIQSIKVQFTEYKKEKGFILTSQKEDEIMKVQNNSVIINCDGFYLISLKGYFSQEVNISLHYQKDEEPLFQLKKVRSVNSLMVASLTYKDKVYLNVTTDNTSLDDFHVNGGELILIHQNPGEFCVL
As for B11, in experiment [8], the “luminescence, Jurkat-NFκB-OX40 agonism assay” value was 8 fold. Moreover, the “average proliferation index (Av), coated T cell agonism assay” value in [9] came to 5.61.

B12: OX40L (P865) (Fc fusion, human, UniProt P23510 51-183, looked up)
OX40L-Fc chain: QVSHRYPRIQSIKVQFTEYKKEKGFILTSQKEDEIMKVQNNSVIINCDGFYLISLKGYFSQEVNISLHYQKDEEPLFQLKKVRSVNSLMVASLTYKDKVYLNVTTDNTSLDDFHVNGGELILIHQNPGEFCVL
notes: the sheet prints OX40L (P865) in the legend box and OX40L (P685) beside the curve; also called OX40L-Fc; OX40L (P685)
As for B12, the “EC50 (read off the curve)” value in experiment [10] is approximately 0.2 µg/mL.

(Values after patent US20250353921A1 (ASTRIA THERAPEUTICS, published 2025).)
